The target of experiment [1] is cynomolgus monkey C-KIT, full length, on CHO-K1 cells (cynomolgus monkey). Description: cell-based or functional assay.
Experiment [2] has as its target human C-KIT, full length, on cells (human) (UniProt P10721). Description: cell-based or functional assay.
The target in experiment [3] is cynomolgus monkey C-KIT-Fc (cynomolgus monkey). Description: HTRF epitope competition in solution; unlabelled h37M IgG1-3M titrated against terbium-labelled h37M IgG1 on cyno C-KIT-Fc.
Experiment [4] has the same target. As to the kind of experiment: direct ELISA at 1 µg/ml. For orientation: In an ELISA, binding on a coated surface is turned into a signal by an enzyme label.
Experiment [5] has the same target. Description: HTRF competition vs Tb-h37M IgG1. For orientation: TR-FRET usually uses a lanthanide donor and a delayed reading to cut background.
The target is the same in experiment [6]. As to the kind of experiment: HTRF competition vs Tb-h37M IgG1. This is another data set of the same source.
Experiment [7] has the same target. Description: direct titration ELISA on coated C-KIT-Fc, IgG1 format.
For experiment [8] the target is unchanged. The experiment is described as above. This is another data set of the same source.
Experiment [9] has as its target cynomolgus monkey C-KIT, full length, on CHO-K1 cells (cynomolgus monkey). As to the kind of experiment: flow cytometry, C-KIT-transfected CHO-K1 cells, IgG1 format. On the technique in general: A flow cytometer gives signals particle by particle.

As usually defined, the IC50 is the point on the concentration scale where inhibition reaches its midpoint. Broadly, the EC50 (read off the curve) is the concentration needed to bring the measured effect to its halfway point.

Like-named read-outs stand apart in the source and are kept apart here. A value given as a limit tells only on which side of the number the result lay.

B1: h37M-IgG1-3M (antibody, V domains shown)
VH: QVQLVQSGAEVKKPGASVKLSCKASGYTFTDYYINWVRQAPGKGLEWIARIYPGSGNTYYNEKFKGRATLTADKSTSTAYMQLSSLRSEDTAVYFCARGVYYFDYWGQGTTVTVSS
VL: DIVMTQSPSSLSASVGDRVTITCKASQNVRTNVAWYQQKPGKAPKALIYSASYRYSGVPDRFTGSGSGTDFTLTISSLQPEDFADYFCQQYNSYPRTFGGGTKVEIK
In turn, B1 gave a Cyno C-KIT CHO FabZAP IC50 (pM) in experiment [1] of 7.82 pM. In addition, in experiment [2], the Human C-KIT CHO FabZAP IC50 (pM) was found to be 5.7 pM, the TF-1 FabZAP IC50 (pM) was determined as 12.8 pM and the TF-1 proliferation IC50 amounted to 0.11 nM. The same molecule had an IC50 (read off the curve) in [3] of 0.02 µg/mL.

B2: humanized h37M, human IgG1 (antibody, V domains shown)
VH: B1 VH
VL: B1 VL
As to B2, the OD450 nm in experiment [4] was over 2 OD450 nm. Further, the IC50 in experiment [5] amounted to 0.035 µg/mL; in experiment [6] it was 0.036 µg/mL. In addition, the EC50 (read off the curve) in [7] was found to be 0.1 µg/mL; in [8] it was 0.2 µg/mL; in experiment [9] it was 0.2 µg/mL.
